Data reported in the supplement of paper PMC12636428.

System: Saccharomyces cerevisiae
Test: transcriptional activation domain activity (GFP:mCherry ratio, weighted mean of sorted bins, harmonized to initial dataset scale) (arbitrary fluorescence ratio units); higher = stronger transcriptional activation
Settings: beta-estradiol 1 µM; induction time 4 h
Method in brief: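 Barcoded tiles were sequenced after cells were sorted into 8 bins by GFP:mCherry ratio. Before sorting, cultures had been diluted 1:5 into SC with 1 uM beta-estradiol and held for 4 hours at 30 °C. The tiles were fused to an estradiol-inducible synthetic transcription factor and integrated at URA3 in yeast diploids carrying a GFP reporter. Activation activity is the read-weighted mean of bin median fluorescence, averaged over barcodes and linearly mapped onto the initial dataset scale, and tiles under 50 reads were left out.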

VPPELYVCAEIVRMVMGYVEGGFVKSSSNHKIRPEVLLIACLIVSIKICYSME
transcriptional activation domain activity: 61300

AGDKPEKSKKDKKKEKEEKKKAAVAAEKEKQEKGDEAVAAAPSPVAAATPSLL
transcriptional activation domain activity: 29900

GAVAADVEDEDADDALEEPAKGKKRKSKVEEDESEAEKPAKKGRGRKSTETNG
transcriptional activation domain activity: 42600

FLARLESLHRALGLYLWFSYRYPNIIISQALAFHAKSMLEAKIDDLLQKMSFD
transcriptional activation domain activity: 44300

MTHILGYIHRSCYFLFLRSFLNFDISCCWITLSWLLCRSILYYCRPMVKILSS
transcriptional activation domain activity: 66300

MIFSLFLSYNPLFYFIYYYLFYFSCFLLLILIAIITIIAILLCILEFHVPKSL
transcriptional activation domain activity: 51600

TTLVTGTQLFFLLSFRDTMFAFSFLLFSPFVLFLWYGFFSSGALFISLICFLV
transcriptional activation domain activity: 54700

MREGWVWISEYRVLCLYFFFFLFLFFSNSFFFSPIYLFLFFTLFLVCLLCFRP
transcriptional activation domain activity: 53400

FLCIFSPFSRMISCLVYRSLFCSSYITSINLIVSVSKVVRRFIIRIFPLLFTI
transcriptional activation domain activity: 51400

IMGLVFRRARRRTVSLVTKYLITETEVVITYIPAVAVAIFPQLNWIYWMIFYP
transcriptional activation domain activity: 65800

EKEVEGNKNNEEDKPEENEEKDGEDKDAKEKGEEDEDEEDRDQDQEDEDQEGR
transcriptional activation domain activity: 11800

RQRAGASGGEEARGRREGRREGGEGEGEGKTEEGTNERDGREGERREGRRRGG
transcriptional activation domain activity: 37700

MHILVELAVFLICRCSQIWRTWVQGGKLAISHNKLVRPTFFRRLLHCIWLFRL
transcriptional activation domain activity: 72200

SFVRDVGFFIVSASFSLVFLWDGKLYFWECVTMVGFYVFYVIFVMAWHWWLGR
transcriptional activation domain activity: 43100

SDAAVELCVAAAPRNGESNKAVVQVLSHVSTHHLHLESLLTCLSQALKIPKMD
transcriptional activation domain activity: 42000

EFPAPPARPPPSHTAPPAPPPPPPPPPPPAAGGGVPPPPPPPPPPATGGAPAP
transcriptional activation domain activity: 30300

VACAVLIAVSIFATIYVVLTSLPVIFQQCPFQTPLSSIIWYLGHLLVIASLSL
transcriptional activation domain activity: 28400

RASTTSPTCSGTSTSARGRGAACSRGASTSGRCTRSSRRTRGSRSGTATSTTR
transcriptional activation domain activity: 33600

SSSEEGSDGEEGDGEKDKDAKEKDGKDADGDVDMDADGKPKPKKAKPKKSTKK
transcriptional activation domain activity: 31500

MILTLFALCFFFLDTSSCFLHFISIVSFLISLILCLFFFFFLVASEPFHFIPS
transcriptional activation domain activity: 57900

MWMSLLHFHTFTIFLTFFFFFFFFFCLPPFVSLLTLFLVEIFLSWREGFLPHP
transcriptional activation domain activity: 39400

QLYCILNPPHLFVFPPKEISSVLFLVGVVHYVLYGLYYMLLLYNLFRFGLLTY
transcriptional activation domain activity: 45700

SFPIEGLYCLIKSLLKLKNLSLHGKIWWGDLKMLLPLLSKLDFWGIGELLLFD
transcriptional activation domain activity: 67000

GSSGSGAGSKGGPAPRGSSAKRSSGSGSGGGGRKGGGSAGKGSGGGGGRGRSG
transcriptional activation domain activity: 28600

STTYYVLSLITFSSFPSIMVSYYSLLFSFFFISLCFLFPLPFVSSLFSHLILF
transcriptional activation domain activity: 40300

MRLGQLYSLFLFPSFLLSFFIMPLVSVTKYTPGVDNIYFFFFLFFFFFLFFFL
transcriptional activation domain activity: 36900

FFSSLFIYSFFVFSFSLSLSLCLLPSFFLSCFLSFFAIYYYLVGFLLLLLLLF
transcriptional activation domain activity: 49100

LPLLHRELFLKKYFEPIYGPWNPNIALASDQTGINSAFEIPITSAFSAHTEPK
transcriptional activation domain activity: 41700

VIIVLIFAVACHLAFGTSVVVFIWRTALLRDISKLSRTNIMPMCISQVVADVL
transcriptional activation domain activity: 42900

MFFILASFSYYYYTHHISLDKVGNFLCRFIHPVFLCSIFIFPFLLYLFKIIYY
transcriptional activation domain activity: 39100

DVDWWNVSSSETTFDAASLPLDVWDPLLPHDTGLSEIEVTTCWLDPWIIPFIT
transcriptional activation domain activity: 132000

DNPEQLMKVFLSRNLISTGVIYSEHKCNMMVRLVWLFLCFLHRKSVLPEIRGL
transcriptional activation domain activity: 59500

GHLLVVSISIIIKAMHGCLYCPIFMYVTTYGYYLWIASFIWRAYYLRFQLTLH
transcriptional activation domain activity: 43600

FPPLFVSPLRLRYPFCGILFNIDTLFFRFLLVHIWLPFFCTYLYPYLLPFHWA
transcriptional activation domain activity: 74200

ASDSAPEPVKKKRGRPPKAQSDSEVVEKRPKKKPGPKPKPKAKAARKRKAPVS
transcriptional activation domain activity: 18900

AKAEAEIKTEAEVKAEAEAPADEEAQTAGGKKKKAKNKKKKKAAAAAAAAAEA
transcriptional activation domain activity: 36300

MAALLWVLAVCLWIHPLSILAFTFHSVEGFKLVREILLDVLPTFDPHSYQIDG
transcriptional activation domain activity: 53200

MISSAKLTLFAFFRSMQMQSISLGRNLKAFILRCVLLWPRILRSFRKVWSWYF
transcriptional activation domain activity: 18200

MAQTTPESASSSQSTLARGKACLRCRKRKMRCDGAKPACGQCVKAHKPDACQY
transcriptional activation domain activity: 24400

ANHQVYVDWWYTWCLTYFMETHRDVCIVLKKSLKWIPVAGWGMQFFKFIFLAR
transcriptional activation domain activity: 39400

EQEVQEERARTGTKGRKRALDDDAAKEEKEEKKEKPEKKEKATKSGKATSAAS
transcriptional activation domain activity: 20800

ENGRNLLRELLIFVAAWDLREEELYFKFMVKILESILVNGYLPYAYHAFREYD
transcriptional activation domain activity: 62000

EDDEELVEEVAKKGKGKGKGKAGKAAAAIGAAEGGKGRRGRKPKAKGAEEQGE
transcriptional activation domain activity: 60600

MVYMSSVNVWGLDIYYSRVSIYLFFFPSLFFLWAASMSLFPYYFLPSLFYIVL
transcriptional activation domain activity: 26500

SVYCLLLILFIPYPFSDVFAKCKHASLEGLACGDFPHNQLSIYLAAILCLLIA
transcriptional activation domain activity: 49800

GDDCEVFFLFTFTFTFFFFYFFPRVLFTPFFFYILDLSLFFYCCSCFFFFSPC
transcriptional activation domain activity: 27100

DALGLRRPSLYYKALVAGQCIFFMALCYTYRMIPYLDQKKIKTLKKVFFRIII
transcriptional activation domain activity: 68800

GNNKPRGNNQRGGARNVRNGAEAGDEEAPREQRDSRSSRGRGEGRGRGRGRGG
transcriptional activation domain activity: 31700

GGSKRDREDSRKGGKTSSRGGRLTEDGPSSSHTKKPRKGKKGEEAKEGGEKSS
transcriptional activation domain activity: 25100

EVTEAEANGETPNAEGVTPAEGEQKPKKKRKSNRKKKAAATPAEGEAAKEAPA
transcriptional activation domain activity: 34500

PAYKLLVAAIWSLEIVDQAFIGHCVYYYTISNYMSPQVLLFGDVIWTLIIQLV
transcriptional activation domain activity: 43000

FFLKVYLLNPMHMTRFADLLYQGAILNRVFQPYESHLQYLLQWMCDYNLYGCA
transcriptional activation domain activity: 46700

CWWPFGIPVYMFFHAPETVHYSYFLFFFLSLSLPAMLNIYLVIFIVSWLKSVP
transcriptional activation domain activity: 38200

DEEEAPEEGARGRRRKGRGKGKGKQGGGGEEEGGDGEEVEGEGEAEGEQENAG
transcriptional activation domain activity: 24000

GGKEEGGEETGERATKQQKTTPQESNKGSQGGNNNQRQGGGRNRHGRNRNGGG
transcriptional activation domain activity: 30400

WRILLIVHLFGPFSLVDELLLPFKSSTSIFLFGILYIYCLFVLFLAYMILSIL
transcriptional activation domain activity: 32600

GSFVGFLFCFVDFGFWILEFSFFFSWMPAGVLSFWMVASQWGKADDIFFSLFF
transcriptional activation domain activity: 50600

KKLTRGKGKKSKGKKARSNAKRSKGKGKVTKEDTSDEEDEEEGEEERGEEEEE
transcriptional activation domain activity: 12500

MSRQPVRAIFLYDILLFFLSGRSIDFVLIFSTWPFFFSFFLSFSLPPYFYFIL
transcriptional activation domain activity: 71500

QYTKLFFFFFLWPLPSLSLLHLPHFSCSLFPFFPTFAPPFSLSLYLSQSFLFL
transcriptional activation domain activity: 54900

ARDMLEDTFLIPKNLYAVHGPGISVKALEIADALVDVVNQYDQNAESEAWNFL
transcriptional activation domain activity: 112000

DCDIAQQQRFGAMFDDLLKSRETYFLRCSLSTWEIEHDVWWPFYLRSLEWCYF
transcriptional activation domain activity: 50000

MGLLCFVFVLHSVFFIFNALSFLPWFVFLKIKFIFLCLSSFGRVFSSFIYMIF
transcriptional activation domain activity: 53000

SLQEIDKMRVDGKFVDSEGIGRRPICVSSSILKQVLLYLLRRCYGLIYRLLSS
transcriptional activation domain activity: 33800

LCVFDLLVLTTTAFIQSGVYCAFDWTVSTIEVRGVCVLAVLIATIPIVFIAYA
transcriptional activation domain activity: 31400

KKEKSPSEDEAEKPKSPKSPFAKLRATVKGKSPKTEKPAEEPKAEAAPEAKTE
transcriptional activation domain activity: 24100

IIVICSVALYKVVSITGVGLVCLLLAGYLCFFNLFCSNVIRLSLLFLPINARP
transcriptional activation domain activity: 58000

AAAAAPATTTTESAPAPAAEAAKPAEEAKPAATEAAPAADATAAAPAPAPAAA
transcriptional activation domain activity: < 6570

AAAVAVAREHVQKEVVATVTVAKEHVQKEEVVAAVAVAREHAQKEVVATVAVA
transcriptional activation domain activity: 56000

PQQNIAPPFLNTNSSATDSNPNTNLEDSLFFDHDLLSSSITNTNNGQGSNNGR
transcriptional activation domain activity: 24800

MMNNNESEAENQRLLDELMNQTKVLQETLDFSLVTPTPHHNDDYKIHGSAYPG
transcriptional activation domain activity: 47300

GFSCHTRILGRPIIISTSTSYIGILLDLVRTFYFLYLLLRILLKVFLAVWCFL
transcriptional activation domain activity: 63700

NITKILVMKFFTIDFTFTIMYITGLLITFLYYLVGYFQMNVKLLGSDRAYFAF
transcriptional activation domain activity: 35700

FCYVVVLGRVLIRFGGYQVLTLWRSCMRRLPKLGDSIWSRVFLRCVSCMSLFL
transcriptional activation domain activity: 62000

MSFVDLHGIWGFFLPFIFSVINWYLNYVLILTLLFFLCHVRIWVLYLVNIYRE
transcriptional activation domain activity: 55000

QQAGRTMSEGKKKRNTGKEEGEEGDEERKRKRRAEKKRKQRKRRMSKSTGEEE
transcriptional activation domain activity: 31700

LSSSVPIEAETFSSFRPDMNMTMNMNLHNASTSSFNNEAFWKPLDSAIDHHSG
transcriptional activation domain activity: 53500

VFFLSLCFASFFPLGHLCWAKGLFHTLEFIAPISRSVSCYVMGLVLYTFHLPE
transcriptional activation domain activity: 22000

FDLDDQYLANVVAEDRDASVLVQMSIIVQEGEHSHKSEQEPHISLLVLRRKRL
transcriptional activation domain activity: 40200

HVFPILLRLVGGYALLRKLIDSIEEAYLAYHMVASQTYFMSTSLTFCAILARM
transcriptional activation domain activity: 71200

ALRREYLTLNGFMPSRINWAIQSSGVDYLHLLIIAMEHLITRFRLSARLAITV
transcriptional activation domain activity: 53800

ESEKAGGKRKQERRSRAGRGEGEGEERENRCRGEEGRGREGGGRREGKEGVGG
transcriptional activation domain activity: 39400

MKIHECTGVVYIGNVLCHKQPQVLLGLMFFMDLTLFFLDSYLWYIICNTIFSV
transcriptional activation domain activity: 68700
